Results from article PMC6923452, “SHBG141–161 Domain-Peptide Stimulates GPRC6A-Mediated Response in Leydig and β-Langerhans cell lines” (Scientific Reports, 2019).
Entries after “also recorded” stand apart in the source; their conditions may differ.

Experiments:
[1] = tested on: MA-10 cells; assay: Testosterone (T) release from Leydig MA-10 cells (GPRC6A-mediated); type: cell-based, Mouse; conditions: for effect of SHBG pre-incubation on T release induced by SHBG141–161: then SHBG141–161 10^−11M
Procedure: Human ucOCN was obtained from chemical decarboxylation of cxOCN, purchased from Bachem AG (Bachem, Bubendorf, Switzerland), as previously described. For displacement experiments, an aliquot ucOCN underwent chemical biotinylation as previously described[9],[41]. Unliganded human SHBG was purchased by […], Belgium). Human chorionic gonadotropin Gonasi was purchased by IBSA Farmaceutici Srl (Italy). Mouse Leydig-carcinoma cell line MA-10 (passage number 3 to 8; ATCC®; RRID: CRL-1573) were cultured on 0,1% gelatin/PBS-coated plasticware according to the manufacturer's instructions and maintained in DMEM:F12 Medium (ATCC®; RRID: 30-2006; pH 7,4) supplemented with additional 20 mM HEPES and horse serum to a final concentration of 15%. For immunofluorescence experiments, cells were let attach on 0,1% gelatin/PBS-coated round-coverslips (ø 13 mm, Menzel-Gläser-VWR International Srl, Milan, Italy) and then washed and fixed with 4% paraformaldehyde/PBS solution at room temperature for 15 min. After membrane permeabilization with 1% Triton X/PBS solution for 10 min at room temperature, cells were saturated with 5% bovine serum albumin/5% normal donkey serum/PBS solution for 1 hour and then incubated with rabbit-polyclonal anti-mouse GPRC6A IgG (dilution 1:200; Santa Cruz Biotechnology Inc. Heidelberg Germany; RRID: sc-67302,) and goat-polyclonal anti-human INSL3 IgG (dilution 1:200; Santa Cruz Biotechnology Inc; RRID: sc-48550) at 4 °C overnight. After extensive washing, primary immunoreaction was detected by appropriate secondary reagent, respectively: biotin conjugated-anti rabbit IgG (dilution 1:100; Vector Laboratories, Peterborough, UK; RRID: BA-1000) followed by Streptavidin […], (dilution 1:100; GeneTex/Prodotti Gianni, Milano, Italy; RRID: GTX85907) and FITC conjugated-anti goat IgG (dilution 1:100; Abcam, Milan, Italy; RRID: ab6737). Samples were then counterstained with 4',6-diamidino-2-phenylindole (DAPI), mounted with anti-fade buffer and then analyzed with Video-Confocal (VICO) fluorescence microscope (Nikon, Firenze, Italy). […] RRID: KGE010) according to manufacturer's instructions. Receptor blockade experiments were performed by pre-incubating cultured cells with anti-GPRC6A polyclonal antibodies (final concentration of […]; Santa Cruz Biotechnology Inc; RRID: sc-67302) for 30 minutes at 37 °C as previously described.

[2] = tested on: β-TC6 cells; assay: Insulin release from Langerhans β-TC6 cells (GPRC6A-mediated); type: cell-based, Mouse; conditions: for effect of SHBG pre-incubation on insulin release induced by SHBG141–161: then SHBG141–161 10^−11M
[3] = tested on: extracellular domain of GPRC6A; conditions: previous study; immunoprecipitation assays; cited from earlier work
Text: To this regard, our group recently reported that sex hormone-binding protein (SHBG), the major blood carrier of T, is able to bind the extrace ... || If on one hand these represent encouraging results about the reliability of GPRC6A as therapeutic target, on the other hand, drug peptides and biologics drown great interest for their favorable safety profile, target specificity and pharmacokinetics compared with traditional small-molecule drugs. To this regard, the metabotropic receptor GPRC6A has been widely investigated as the mediator of non-genomic effects of androgens.

[4] = SHBG 10^−14-10^−9M, any of the concentration tested
[5] = increasing SHBG, 1 hour at 37 °C

B1: SHBG: Unliganded human SHBG was purchased by Affiland; the major blood carrier of T (protein, UniProt P04278 30-402, looked up)
Sex hormone-binding globulin: LRPVLPTQSAHDPPAVHLSNGPGQEPIAVMTFDLTKITKTSSSFEVRTWDPEGVIFYGDTNPKDDWFMLGLRDGRPEIQLHNHWAQLTVGAGPRLDDGRWHQVEVKMEGDSVLLEVDGEEVLRLRQVSGPLTSKRHPIMRIALGGLLFPASNLRLPLVPALDGCLRRDSWLDKQAEISASAPTSLRSCDVESNPGIFLPPGTQAEFNLRDIPQPHAEPWAFSLDLGLKQAAGSGHLLALGTPENPSWLSLHLQDQKVVLSSGSGPGLDLPLVLGLPLQLKLSMSRVVLSQGSKMKALALPPLGLAPLLNLWAKPQGRLFLGALPGEDSSTSFCLNGLWAQGQRLDVDQALNRSHEIWTHSCPQSPGNGTDASH
effect of SHBG pre-incubation on T release induced by SHBG141–161 ([1]; SHBG 10^−12M, 1 hour at 37 °C): complete blunt of the secretory stimulating activity | effect of SHBG pre-incubation on T release induced by SHBG141–161 ([1]; SHBG 10^−13M, 1 hour at 37 °C): significant reduction of T release; also recorded: significantly blunted | induction of T release by SHBG alone [1, 4]: ineffective | effect of SHBG pre-incubation on T release induced by hCG ([1]; SHBG, any of the concentration tested, 1 hour at 37 °C, then hCG 2,5 nM): negligible effect on T and insulin release | effect of SHBG pre-incubation on T release induced by SHBG141–161 [1, 5]: progressive reduction of T and insulin release | effect of SHBG pre-incubation on insulin release induced by SHBG141–161 ([2]; SHBG 10^−12M, 1 hour at 37 °C): complete blunt of the secretory stimulating activity | induction of insulin release by SHBG alone [2, 4]: ineffective | effect of SHBG pre-incubation on insulin release induced by IBMX/glucose ([2]; SHBG, any of the concentration tested, 1 hour at 37 °C, then 15 mM glucose + 100 μM IBMX): negligible effect on T and insulin release | effect of SHBG pre-incubation on insulin release induced by SHBG141–161 [2, 5]: progressive reduction of T and insulin release | binding to GPRC6A [3]: simple binding observed through immunoprecipitation assays; also recorded: able to bind the extracellular domain of GPRC6A
